Data: the nanobody polyreactivity screen of Harvey et al. (2022)

Assay: yeast display, Sf9 membrane polyspecificity reagent, FACS + sequencing; frameworks hold sequencing errors
Summary of the method: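 Synthetic nanobody libraries on Saccharomyces cerevisiae BJ5465 were galactose-induced for 36–48 hours, stained 1 hour at 4 °C with 10% biotinylated, detergent-solubilized Sf9 membrane reagent and enriched on streptavidin microbeads. FACS then separated cells into low and high (top ~1%) gates by anti-HA (expression) and streptavidin (reagent binding) fluorescence. Genes were colony-PCR amplified, MiSeq 2 × 250 sequenced and CDR-length filtered. A clone's polyreactivity label is that of its gate of origin.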

Sequence	polyreactivity (PSR sort gate)
QVQLVESDGGLVQAGGSLRLSCAASGSTFRYNAMGWYRQAPGKERELVAAISWGGGTPFYADSVKGRFTISRDNAKNTVYLQMNSLTPEDTAVYYCAASYRDYPWGRYYYWGQGTQVTVSS	low polyreactivity
QVQLVESEGGLVQAGGSLRLSCAASGRTFHYYAMGWYRQAPGKERELVAAISSTGGSTYYADSVKGRFTISRDNAKNTVYLQMNSLKPEDPAVYYCAARRSRGYSPTYDYWGQGTQVTVSS	high polyreactivity
QVQLVESGAGIVQAGGSLRLSCAASGYTFQHYAMGWYRQAPGKERELVAAITRRGSGTYYADSVKGRFTISRDNAKNTVYLQMNSLKPEDTAVYYCGADWYYGDEYEYWGQGTQVNVSS	high polyreactivity
QVQLVESGAGLFQAGGSLRLSCAPSGSIFAPNDMGWYRQAPGKERELVAAITSSGGRTYYADSVKGRFTISRDNAKNTVYLQMNSLKPEDTAVYYCAADHGYQYGYWGQGTHVTVSS	low polyreactivity
QVQLVESGAGLVKAGGSLRLSCAASGRSFRGNVMGWYRQAPGKEREFVAAISSSGGSTYYADSVKGRFTISRDNAKNTVYLQMNSLKPEDTAVYYCAAGGWPYSGGWFFQPNYDYWGQGTQVTVSS	low polyreactivity
QVQLVESGAGLVKAGGSLRLSSAASGSTFGEYDMGWYRQAPGKERELVASITFSAGSTDYADSVKGRFTISRDNAKNTVYLQMNSLNPEDTAVYYCAADGWWPWEYDYWGQGTQGTVSS	low polyreactivity
QVQLVESGAGLVQAAGSLRISSAHSGFSFTYNAMGWYRQAPGKVTEFVASISRSGGRTYYADSVKGRFTISRDNANNTVYLQMNSLKPEDTAVYYCAARNAYVYGMDSWGKGTQVTVSS	low polyreactivity
QVQLVESGAGLVQAGASLRLICAASGRTFPDYAMGWYRQAPGTERELVAAIYSGGGTNYADSVKGRFTISRDNAKNTVYLQMNSLKQEDTAVYYCAATGVPGWVGFDYWGQGTQVTVSS	low polyreactivity
QVQLVESGAGLVQAGGGLRLSCAASGFIFNLYAMGWYREAPGKERELVAAISSGGNTHYADSVKGRFTISRDNAKNTVYLQMNSLKPVDTAVYYCNADVNHVNKAWHVSFHQGYYWGQGTQVTVSS	low polyreactivity
QVQLVESGAGLVQAGGILRLSCAASGRIFQYNAMGWYRQAPGKEREWVAAIRRGGGSTYYADSVKGRFTISRDNAKNTVYLQMNSLKPEDTAVYYCAARRKRVSFYPEYDYWGQGTQVTVSS	low polyreactivity
QVQLVESGAGLVQAGGRLRLSCAASGFIFTRYVMGWYRQAPGKERELVAAIRRGGSTYYADSVKGRFTISRDNAKNTVYLPMNSLKPEDTAVYYCAALYAYSLTARGMEYWGQGTQVTVSS	high polyreactivity
QVQLVESGAGLVQAGGRLRLSCAASGIIFRPYAMGWYRQAPGKERELVAAITGSGVSTYYADSVKGRFTISRDNAKITVYLQMNSLKPEDTAVYYCAKRYNRCDHRYDYWGQGTQVTVSS	low polyreactivity
QVQLVESGAGLVQAGGRLRLSCAASGRIFIRNAMGWSRQAPGKERELVAAIDSVGSTNYADSVKGRFTISRDNAKNTVYLQLNSLKPEETAVYYCAARGWKYASPYWGYYYWGQGSQVTVSS	low polyreactivity
QVQLVESGAGLVQAGGSLGLSCAPSGRIFGRYVRGWYRQAPGKERELVATITSRGGTTYYADSVKGRFTISRDNAKNTVFLQMISLKPEDTAVYYCAVRGLIRFSKYGYWGQGTQVTVSS	high polyreactivity
QVQLVESGAGLVQAGGSLLLSSAPSASTFVSYAMGWYRQAPGKERELVAAISSGGGSTYYADSVKGRFTISRDNAKNTVYLQMNILKPEDTAVYYCAARGYAYRAQYGYWGQGTQVTVSS	high polyreactivity
QVQLVESGAGLVQAGGSLRISCAASGRTFFPNAMGWYRQAPGKERELFAAISSGGGGTYYADSVKGRFTISRDNAKNTVYLQMNSLKPEDTAVYYCAARNSKVEEDGNYWGQGTQVTVSS	low polyreactivity
QVQLVESGAGLVQAGGSLRLCCAASGSIFAPYAMGWYRQAPGKERELVAAISRSGGSTYYADSVKGRFTISRDNAKNTVYLQMNSLKPEDTAVYYCADRNGLRQYRLDYWGQGTQVTVSS	high polyreactivity
QVQLVESGAGLVQAGGSLRLSCAASGFIFEINAMGWYRQAPGKERELVAVITNSGGSTYYADSVKGRFTISRDNAKYTVYLQMNSLKPEDTAVYYCAADAVHYTNDWYDYWGQGTQVTVSS	low polyreactivity
QVQLVESGAGLVQAGGSLRLSCAASGFTFAFYAMGWSRQAPGKERELVAAITGSGGSTYYADSVKGRFTISRDNAKNTVYLQMNSLIPEVTAVYYCNNYTYYSRMDYWGPGTQVTVSS	high polyreactivity
QVQLVESGAGLVQAGGSLRLSCAASGFTFDNYVMGWYRQAPGKERELVAAISKSGTSTYYADSVKGRFTISRDNAKNTVYLQMNSLKPEDTAVYYCAAALPGYGDYYYWGQGTLVTVSS	high polyreactivity
QVQLVESGAGLVQAGGSLRLSCAASGFTFDYYAMGWYRQAPGKESELVATINGASSTNYADSVKGRFTISRDNAKNTVYLQMNSLKPEDTAVYDCNARYYGPDFVLAYDYWGQGTQVTVSS	low polyreactivity
QVQLVESGAGLVQAGGSLRLSCAASGFTFNYYAMGWYRQAPGKERELVATITTSGGITYYADSVKGRFTISRDNAKNTVYLQMNSLKPEDTAVYYCAAGSYSRYLYSLYFDFDYWGQGTQVTVSS	low polyreactivity

Sequence	polyreactivity (PSR sort gate)
QVQLVESGAGLVQAGGSLRLSCAASGIIIPYYVMGRYRQAPGKEMELVAAISGSGGSTYYADSVKGRFTISRDNAKYTVYLQLNSLKPEAPAVYYCARYYYQFGGYEYWGQGTQVTVSS	high polyreactivity
QVQLVESGAGLVQAGGSLRLSCAASGITFASYAMGWYRQAPGKERELVAAITWGGSRTYYADSVKGRFTISRDNAKNSVYLQMNSLKPEDTAVYYCNAHTRYGPDYSYYYWGQGSQVTVSS	high polyreactivity
QVQLVESGAGLVQAGGSLRLSCAASGITFYDNDMGWYRQPPGKERELVAGITGTTVGTYYADSVKGRFTISRDIAKNTVYLQMNSLKPEDTAVYYALLTVVVPYQYYSLSLNTLDSWGQGTQVTVSS	low polyreactivity
QVQLVESGAGLVQAGGSLRLSCAASGITFYDYAMAWYRQAPGKERELVAAISRSGITYYADSVKGRFTISRDNAKNTVYLQMNSLKPEVTAVYYCAAGRSFDQSMYYWGQGTQVTVSS	high polyreactivity
QVQLVESGAGLVQAGGSLRLSCAASGNTFGTYAMGGSRQAPGKERELVASISKRAGSTYYADSVKGRFTISRDNAKNTVYLQMNSLKPEDTAVYYCAASSWDTFDYWGQGTQVTVSS	high polyreactivity
QVQLVESGAGLVQAGGSLRLSCAASGRIFDNYVMGWYRQAPGKERELVAAISSGGGTYYADSVKGRFTISRDNAKNTVYLQMNSLKPEDTAVYYCAKRRVYDRSFGRYDYWGQGTKVTVSS	low polyreactivity
QVQLVESGAGLVQAGGSLRLSCAASGRIFERYAMGWYRQAPGKERELVAAISVSGSGTYYADSVKGRFTISRDNAKNTVYLQMNSLKPEDTAVYYCAADASLLGLFQGYDYWGQGTQVTVSS	low polyreactivity
QVQLVESGAGLVQAGGSLRLSCAASGRIFRCYAMGWYRQAPGKERELVAAIRSGGSTNYADSVKGRFTISRDNAKNTVYLQMLSLKPEDTAVYYCATQNIYRIHQSLWGWYGYWGQGTQVTVSS	low polyreactivity
QVQLVESGAGLVQAGGSLRLSCAASGRIFTKYAMGLYRQAPGKERELVAAISGSGGNTYYADSLKGRFTISRDNAKNTVYLQMNSLKPEDTAVYYCNRAKNAYLMDFWGQVTQVTVSS	high polyreactivity
QVQLVESGAGLVQAGGSLRLSCAASGRIFYPYAMGRSRQAPGKERELVAAISGRGGRTYYADSVKGRFTISRDNAKNTVYLQMKSLKPEYTAVYYCNRVVSGYPGSDYWGNGTQVTVSS	high polyreactivity
QVQLVESGAGLVQAGGSLRLSCAASGRIFYWNAMGWYTQAPGKEREFVAAISWSGGSTYADSVKGRFTISRDNAKNTVYLQMNSLKPEDTAVYYCATRVSRSFRAYDYWGQGTQVTVSS	high polyreactivity
QVQLVESGAGLVQAGGSLRLSCAASGRTFAFYAMGWYRQAPGKERELVAAITLGASRTYYADSVKGRFTISRDNAKNTVYLQMNSRKPEDTAVYYCNAVGRRNVDSSLNDYWGQGTLVTVSS	low polyreactivity
QVQLVESGAGLVQAGGSLRLSCAASGRTFWSYAMGWYRQAPGKERELVAAIRTSDGITYYADSVKGRFTISRDNAKNTVYLQMNSLKPEDTAVYYCAAENWYNYDYWGQGTQVSVSS	low polyreactivity
QVQLVESGAGLVQAGGSLRLSCAASGRTLKTYVMGWYRQAPGKERELVAAITCGGRTYYADSVKGRFTISRDNAKNTVYLQMNSLKPEDTAVYYCNAQLYWYRYWYLFDNTSFDYWGQGTQVTVSS	low polyreactivity
QVQLVESGAGLVQAGGSLRLSCAASGSIFDDYAMGWSRQAPGKESELVAAISSSGTSTYYADSVKGRFTISRDNAKNTVYLQMNSLKPEDTAVYYCNRGLAARVGSGDYWGQGTQVTVSS	low polyreactivity
QVQLVESGAGLVQAGGSLRLSCAASGSIFQPDAMGWYRQAPGKERELVAAITNCGSTYYADSVKGRFTISRDNAKNTVYLQMNSLNPEVTAVYYCAADVQSSHEYDYWGQGTQVTVSS	low polyreactivity
QVQLVESGAGLVQAGGSLRLSCAASGSISRYYAMGWYRQAPGKERELVAAISVSGGSTYYADSVKGRFTISRDNAKNTVYLQMNSLKPEHTAVYYCKKVRLSDYDWGQGTQVTVSS	high polyreactivity
QVQLVESGAGLVQAGGSLRLSCAASGSTFCRYVAMGWYRQAPGKERELVAAISVSDGDTYYADSVKGRFTISRDNAKNTVYLQMNSLKPEDTAVYYCAAESFYGYDYWGQGTQVTVSS	high polyreactivity
QVQLVESGAGLVQAGGSLRLSCAASGSTFGFNTMGWYRQAPGKERELVAAISWSTGRTNYADSVKGRFTISRDNAKNTVYLQMNRLKPEDTAVYYCAARALDKYRFGGRYDYWGQGTQVTVSS	low polyreactivity
QVQLVESGAGLVQAGGSLRLSCAASGSTFGINAMGWYRQAPGKERELVASIRGDGGSTYYADSVKGRFTISRDNEKNTVSLQMNSLKPEDTAVYYCNKDDFSSPGENRYHSDPYDSWGQGTQVTVSS	low polyreactivity
QVQLVESGAGLVQAGGSLRLSCAASGSTFGRNAMGWYRQPPGKERELVASISSGGSTYYADSVKGRFTISRDNAKNTVYLQMNSLKPEDTAVYYCAKDWVYEISYYYYELDYWGQGTQVTVSS	low polyreactivity
